Experimental data: US20060051832A1, “Modified sarcosine oxidase, process for producing the same and reagent composition using the same” (Toyo Boseki Kabushiki Kaisha, priority 2002, published 2006)

Key:
Type in all cases: biochemical, Arthrobacter sp. TE1826
[1] = substrate: CNCC(=O)O; assay: Km of modified sarcosine oxidase SAOM5B; conditions: other: SAOM5B, 37° C., pH 8.0
Method: (§1) • 100 mM Tris-HCl buffer (pH 8.0) (containing 200 mM sarcosine and 0.1% Triton X-100) • 0.1% 4-aminoantipyrine • 0.1% phenol • 25 U/mL peroxidase <Measurement Condition>
(§2) A reaction mixture is prepared by mixing the above Tris-HCl buffer, 4-aminoantipyrine solution, phenol solution and peroxidase solution at a ratio of 5:1:2:2. The reaction mixture (1 mL) is taken to a test tube, preliminarily warmed at 37° C. for about 5 min, and 0.05 mL of an enzyme solution is added to start the reaction. The reaction at 37° C. is performed accurately for 10 min, then 2.0 mL of an aqueous solution of 0.25% SDS is added to stop the reaction, and an absorbance at 500 nm of this solution is measured. In a blind test, distilled water instead of the enzyme solution is added to the reagent mixture, and the same manipulation is followed to measure the absorbance. […] The reactivity to proline was measured as a relative ratio of activities when sarcosine in the above reagent was replaced by L-proline at the same concentration. […]
(§3) Various sarcosine oxidases obtained in Example 3B and Comparative Example 1 were evaluated.
(§4) Action on proline was calculated from a relative ratio (%) of the enzyme activity using L-proline as the substrate to the enzyme activity suing sarcosine as the substrate in the above activity measurement method. […]

[2] = substrate: CNCC(=O)O; assay: Km of modified sarcosine oxidase SAOM1B; conditions: other: SAOM1B, K89R, 37° C., pH 8.0
Method: as §1, §2, §3, §4

[3] = substrate: CNCC(=O)O; assay: Km of unmodified sarcosine oxidase (control, Comparative Example 1); conditions: other: unmodified (control), 37° C., pH 8.0
Method: as §1, §2, §3, §4

[4] = substrate: CNCC(=O)O; assay: Km of modified sarcosine oxidase SAOM8B; conditions: other: SAOM8B, 37° C., pH 8.0
Method: as §1, §2, §3, §4

[5] = substrate: CNCC(=O)O; assay: Km of modified sarcosine oxidase SAOM2B; conditions: other: SAOM2B, V94G, 37° C., pH 8.0
Method: as §1, §2, §3, §4

[6] = substrate: CNCC(=O)O; assay: Km of modified sarcosine oxidase SAOM7B; conditions: other: SAOM7B, 37° C., pH 8.0
Method: as §1, §2, §3, §4

[7] = substrate: CNCC(=O)O; assay: Km of modified sarcosine oxidase SAOM6B; conditions: other: SAOM6B, 37° C., pH 8.0
Method: as §1, §2, §3, §4

B1: Arthrobacter sp. TE1826 sarcosine oxidase (SEQ ID NO:1) variant SAOM5B, V94G, E250Q, K89R (Arthrobacter sp. TE1826; E250Q/K89R/V94G) (protein)
chain: MSIKKDYDVIVVGAGSMGMAAGYYLSKQGVKTLLVDSFHPPHTNGSHHGDTRIIRHAYGEGREYVPFALRAQELWYELEKETHHKIFTRTGVLGFGPKGEAPFVAETMEAAKEHSLDVDLLEGSEINKRWPGVTVPENYNAIFEKNSGVLFSENCIRAYRELAEANGAKVLTYTPVEDFEIAEDFVKIQTAYGSFTASKLIVSMGAWNSKLLSKLNIEIPLQPYRQVVGFFECDEKKYSNTHGYPAFMVQVPTGIYYGFPSFGGCGLKIGYHTYGQKIDPDTINREFGIYPEDEGNIRKFLETYMPGATGELKSGDVCMYTKTPDEHFVIDLHPQFSNVAIAAGFSGHGFKFSSVVGETLSQLAVTGKTEHDISIFSINRPALKQKETI
Km [1]: 3.3 mM mM

B2: Arthrobacter sp. TE1826 sarcosine oxidase (SEQ ID NO:1) variant SAOM1B, K89R (Arthrobacter sp. TE1826; K89R) (protein)
chain: MSIKKDYDVIVVGAGSMGMAAGYYLSKQGVKTLLVDSFHPPHTNGSHHGDTRIIRHAYGEGREYVPFALRAQELWYELEKETHHKIFTRTGVLVFGPKGEAPFVAETMEAAKEHSLDVDLLEGSEINKRWPGVTVPENYNAIFEKNSGVLFSENCIRAYRELAEANGAKVLTYTPVEDFEIAEDFVKIQTAYGSFTASKLIVSMGAWNSKLLSKLNIEIPLQPYRQVVGFFECDEKKYSNTHGYPAFMVEVPTGIYYGFPSFGGCGLKIGYHTYGQKIDPDTINREFGIYPEDEGNIRKFLETYMPGATGELKSGDVCMYTKTPDEHFVIDLHPQFSNVAIAAGFSGHGFKFSSVVGETLSQLAVTGKTEHDISIFSINRPALKQKETI
Km [2]: 3.4 mM mM

B3: Arthrobacter sp. TE1826 sarcosine oxidase, wild type (unmodified), SEQ ID NO:1 (Arthrobacter sp. TE1826) (protein)
chain: MSIKKDYDVIVVGAGSMGMAAGYYLSKQGVKTLLVDSFHPPHTNGSHHGDTRIIRHAYGEGREYVPFALRAQELWYELEKETHHKIFTKTGVLVFGPKGEAPFVAETMEAAKEHSLDVDLLEGSEINKRWPGVTVPENYNAIFEKNSGVLFSENCIRAYRELAEANGAKVLTYTPVEDFEIAEDFVKIQTAYGSFTASKLIVSMGAWNSKLLSKLNIEIPLQPYRQVVGFFECDEKKYSNTHGYPAFMVEVPTGIYYGFPSFGGCGLKIGYHTYGQKIDPDTINREFGIYPEDEGNIRKFLETYMPGATGELKSGDVCMYTKTPDEHFVIDLHPQFSNVAIAAGFSGHGFKFSSVVGETLSQLAVTGKTEHDISIFSINRPALKQKETI
Km [3]: 3.4 mM mM

B4: Arthrobacter sp. TE1826 sarcosine oxidase (SEQ ID NO:1) variant SAOM8B, K89R, V94G, N166K, M204A, S213P, E250Q (Arthrobacter sp. TE1826; … (protein)
chain: MSIKKDYDVIVVGAGSMGMAAGYYLSKQGVKTLLVDSFHPPHTNGSHHGDTRIIRHAYGEGREYVPFALRAQELWYELEKETHHKIFTRTGVLGFGPKGEAPFVAETMEAAKEHSLDVDLLEGSEINKRWPGVTVPENYNAIFEKNSGVLFSENCIRAYRELAEAKGAKVLTYTPVEDFEIAEDFVKIQTAYGSFTASKLIVSAGAWNSKLLPKLNIEIPLQPYRQVVGFFECDEKKYSNTHGYPAFMVQVPTGIYYGFPSFGGCGLKIGYHTYGQKIDPDTINREFGIYPEDEGNIRKFLETYMPGATGELKSGDVCMYTKTPDEHFVIDLHPQFSNVAIAAGFSGHGFKFSSVVGETLSQLAVTGKTEHDISIFSINRPALKQKETI
Km [4]: 3.4 mM mM

B5: Arthrobacter sp. TE1826 sarcosine oxidase (SEQ ID NO:1) variant SAOM2B, V94G (Arthrobacter sp. TE1826; V94G) (protein)
chain: MSIKKDYDVIVVGAGSMGMAAGYYLSKQGVKTLLVDSFHPPHTNGSHHGDTRIIRHAYGEGREYVPFALRAQELWYELEKETHHKIFTKTGVLGFGPKGEAPFVAETMEAAKEHSLDVDLLEGSEINKRWPGVTVPENYNAIFEKNSGVLFSENCIRAYRELAEANGAKVLTYTPVEDFEIAEDFVKIQTAYGSFTASKLIVSMGAWNSKLLSKLNIEIPLQPYRQVVGFFECDEKKYSNTHGYPAFMVEVPTGIYYGFPSFGGCGLKIGYHTYGQKIDPDTINREFGIYPEDEGNIRKFLETYMPGATGELKSGDVCMYTKTPDEHFVIDLHPQFSNVAIAAGFSGHGFKFSSVVGETLSQLAVTGKTEHDISIFSINRPALKQKETI
Km [5]: 4.1 mM mM

B6: Arthrobacter sp. TE1826 sarcosine oxidase (SEQ ID NO:1) variant SAOM7B, K89R, V94G, M204A, S213P, E250Q (Arthrobacter sp. TE1826; E250Q/K89R/M204A/S213P/V94G) (protein)
chain: MSIKKDYDVIVVGAGSMGMAAGYYLSKQGVKTLLVDSFHPPHTNGSHHGDTRIIRHAYGEGREYVPFALRAQELWYELEKETHHKIFTRTGVLGFGPKGEAPFVAETMEAAKEHSLDVDLLEGSEINKRWPGVTVPENYNAIFEKNSGVLFSENCIRAYRELAEANGAKVLTYTPVEDFEIAEDFVKIQTAYGSFTASKLIVSAGAWNSKLLPKLNIEIPLQPYRQVVGFFECDEKKYSNTHGYPAFMVQVPTGIYYGFPSFGGCGLKIGYHTYGQKIDPDTINREFGIYPEDEGNIRKFLETYMPGATGELKSGDVCMYTKTPDEHFVIDLHPQFSNVAIAAGFSGHGFKFSSVVGETLSQLAVTGKTEHDISIFSINRPALKQKETI
Km [6]: 3.4 mM mM

B7: Arthrobacter sp. TE1826 sarcosine oxidase (SEQ ID NO:1) variant SAOM6B, K89R, V94G, S213P, E250Q (Arthrobacter sp. TE1826; E250Q/K89R/S213P/V94G) (protein)
chain: MSIKKDYDVIVVGAGSMGMAAGYYLSKQGVKTLLVDSFHPPHTNGSHHGDTRIIRHAYGEGREYVPFALRAQELWYELEKETHHKIFTRTGVLGFGPKGEAPFVAETMEAAKEHSLDVDLLEGSEINKRWPGVTVPENYNAIFEKNSGVLFSENCIRAYRELAEANGAKVLTYTPVEDFEIAEDFVKIQTAYGSFTASKLIVSMGAWNSKLLPKLNIEIPLQPYRQVVGFFECDEKKYSNTHGYPAFMVQVPTGIYYGFPSFGGCGLKIGYHTYGQKIDPDTINREFGIYPEDEGNIRKFLETYMPGATGELKSGDVCMYTKTPDEHFVIDLHPQFSNVAIAAGFSGHGFKFSSVVGETLSQLAVTGKTEHDISIFSINRPALKQKETI
Km [7]: 3.5 mM mM
